Square brackets hold non-standard residues; d marks the D form. Ends that are not written are not given here. Peptide text beside a SMILES is read from it. * marks the point of attachment. Dnp = O=[N+]([O-])c1ccc(*)c([N+](=O)[O-])c1; Mca = COc1ccc2c(CC(=O)*)cc(=O)oc2c1
What was measured:
[1] = biological target: T1, MMP2 (Homo sapiens, UniProt P08253); test: Internally quenched peptide probe cleavage assay, MMP2; type: biochemical; details: internally quenched peptide probe 20 μM (20 pM in source), 20 nM protease, 37° C.
T1 sequence (P08253 110-660): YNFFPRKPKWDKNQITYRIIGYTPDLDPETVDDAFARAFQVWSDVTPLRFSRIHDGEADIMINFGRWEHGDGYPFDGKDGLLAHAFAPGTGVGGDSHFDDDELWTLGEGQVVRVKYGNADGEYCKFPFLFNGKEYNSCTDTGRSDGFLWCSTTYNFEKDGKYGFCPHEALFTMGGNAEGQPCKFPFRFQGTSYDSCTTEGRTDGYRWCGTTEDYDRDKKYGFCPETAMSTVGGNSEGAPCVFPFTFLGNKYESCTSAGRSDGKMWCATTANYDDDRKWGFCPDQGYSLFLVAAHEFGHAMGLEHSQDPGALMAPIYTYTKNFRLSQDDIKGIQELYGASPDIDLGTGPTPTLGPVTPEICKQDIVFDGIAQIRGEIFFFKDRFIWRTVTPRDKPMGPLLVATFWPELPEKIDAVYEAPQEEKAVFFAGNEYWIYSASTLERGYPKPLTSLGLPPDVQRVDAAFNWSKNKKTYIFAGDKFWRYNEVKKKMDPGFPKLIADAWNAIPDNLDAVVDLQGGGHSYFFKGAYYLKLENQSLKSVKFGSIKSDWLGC
Procedure: (§1) The CMs listed in Table 9 below were presented in an internally quenched peptide probe format, rather than included in an activatable antibody format. […] Cleavability kinetics (i.e., pM/s and kcat/KM (M^-1s^-1)) were determined in 96- or 384-well plate format at 37° C. in the following buffers: 50 mM TRIS-HCl (pH 7.4), 150 mM NaCl, 0.05% Tween 20 for MT-SP1, 50 mM Tris-HCl (pH 7.5), 10 mM CaCl2, 150 mM NaCl, 0.05% (w/v) Brij-35 for MMP2 and MMP9, and 50 mM HEPES (pH 6.8), 10 mM CaCl2, 0.5 mM MgCl2, 0.05% (w/v) Brij-35 for MMP14. Cleavability kinetics were determined on an Infinite 200 PRO (Tecan) multimode plate reader using a fluorescence excitation wavelength of 320 nm and an emission wavelength of 405 nm. […] The CMs listed in Table 12 below were presented in an internally quenched peptide probe format, rather than included in an activatable antibody format. […] Cleavability kinetics (i.e., pM/s) were determined in 96- or 384-well plate format at 37° C. in the following buffers: 50 mM TRIS-HCl (pH 7.4), 150 mM NaCl, 0.05% Tween 20 for MT-SP1, 50 mM Tris-HCl (pH 7.5), 10 mM CaCl2, 150 mM NaCl, 0.05% (w/v) Brij-35 for MMP2 and MMP9, and 50 mM HEPES (pH 6.8), 10 mM CaCl2, 0.5 mM MgCl2, 0.05% (w/v) Brij-35 for MMP14. Cleavability kinetics were determined on an Infinite 200 PRO (Tecan) multimode plate reader using a fluorescence excitation wavelength of 320 nm and an emission wavelength of 405 nm.

[2] = biological target: MMP14 (Homo sapiens, UniProt P50281); test: Internally quenched peptide probe cleavage assay, MMP14; type: biochemical; details: internally quenched peptide probe 20 μM (20 pM in source), 20 nM protease, 37° C.
Procedure: as §1

[3] = biological target: MMP9 (Homo sapiens, UniProt P14780); test: Internally quenched peptide probe cleavage assay, MMP9; type: biochemical; details: internally quenched peptide probe 20 μM (20 pM in source), 20 nM protease, 37° C.
Sequence of MMP9 (P14780 94-707): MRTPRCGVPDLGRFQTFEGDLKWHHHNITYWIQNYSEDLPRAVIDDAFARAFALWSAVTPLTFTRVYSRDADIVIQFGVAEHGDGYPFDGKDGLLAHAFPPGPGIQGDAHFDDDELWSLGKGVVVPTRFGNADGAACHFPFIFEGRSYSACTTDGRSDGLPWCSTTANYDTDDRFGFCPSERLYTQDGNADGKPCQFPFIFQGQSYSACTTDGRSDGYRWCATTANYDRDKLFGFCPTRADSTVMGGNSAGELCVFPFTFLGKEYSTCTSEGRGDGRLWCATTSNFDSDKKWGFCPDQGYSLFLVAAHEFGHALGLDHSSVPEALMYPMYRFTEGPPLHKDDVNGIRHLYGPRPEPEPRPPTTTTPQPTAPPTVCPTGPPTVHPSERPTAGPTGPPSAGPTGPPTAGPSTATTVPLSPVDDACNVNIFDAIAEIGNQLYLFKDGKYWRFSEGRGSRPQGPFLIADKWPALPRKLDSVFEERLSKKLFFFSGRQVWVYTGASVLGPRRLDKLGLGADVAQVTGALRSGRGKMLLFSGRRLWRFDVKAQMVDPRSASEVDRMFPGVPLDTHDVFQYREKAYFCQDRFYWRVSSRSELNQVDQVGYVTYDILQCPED
Procedure: as §1

[4] = biological target: T2, MT-SP1 (Homo sapiens, UniProt Q9Y5Y6); test: Internally quenched peptide probe cleavage assay, MT-SP1; type: biochemical; details: internally quenched peptide probe 20 μM (20 pM in source), 20 nM protease, 37° C.
T2 sequence (Q9Y5Y6 1-855): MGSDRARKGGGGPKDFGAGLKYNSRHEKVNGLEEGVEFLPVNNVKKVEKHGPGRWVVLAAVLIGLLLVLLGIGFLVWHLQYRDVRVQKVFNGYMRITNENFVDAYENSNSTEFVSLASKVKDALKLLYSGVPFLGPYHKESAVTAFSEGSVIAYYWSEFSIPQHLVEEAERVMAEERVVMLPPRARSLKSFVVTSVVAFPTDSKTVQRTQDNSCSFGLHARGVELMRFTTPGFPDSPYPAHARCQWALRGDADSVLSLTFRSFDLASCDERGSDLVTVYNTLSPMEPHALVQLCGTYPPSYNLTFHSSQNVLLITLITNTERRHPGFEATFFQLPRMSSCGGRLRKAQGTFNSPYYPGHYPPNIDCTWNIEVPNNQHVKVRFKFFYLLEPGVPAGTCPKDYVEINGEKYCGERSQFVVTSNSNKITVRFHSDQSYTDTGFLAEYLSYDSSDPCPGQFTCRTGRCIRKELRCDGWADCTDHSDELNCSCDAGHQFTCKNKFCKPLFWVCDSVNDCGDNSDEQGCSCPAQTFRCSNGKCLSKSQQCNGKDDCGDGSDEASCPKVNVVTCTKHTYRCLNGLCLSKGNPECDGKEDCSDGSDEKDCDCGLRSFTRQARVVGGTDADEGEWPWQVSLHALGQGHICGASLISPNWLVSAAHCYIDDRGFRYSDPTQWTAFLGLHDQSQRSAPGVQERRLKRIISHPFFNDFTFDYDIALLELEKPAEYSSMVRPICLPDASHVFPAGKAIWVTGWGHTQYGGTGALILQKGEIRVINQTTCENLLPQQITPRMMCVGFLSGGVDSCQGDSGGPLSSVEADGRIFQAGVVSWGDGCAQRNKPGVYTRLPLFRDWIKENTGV
Procedure: as §1

[5] = test system: supernatant from human bone marrow aspirates; test: In situ stability of peptide probes in supernatant from human bone marrow aspirates; details: 20 μM peptide probe, 37° C.

Compound	Probe Cleavage (pM/s) MMP2 [1] [pM/s]	Probe Cleavage (pM/s) MMP14 [2] [pM/s]	Probe Cleavage (pM/s) MMP9 [3] [pM/s]	Probe Cleavage (pM/s) MT-SP1 [4] [pM/s]	cleavage rate in supernatant from human bone marrow aspirates [5] [pM/s]
HASRSGPWGLL (Mca-HASRSGPWGLL-{Lys(DNP)-dR})	692	424			
HQSRSGAWGLL (Mca-HQSRSGAWGLL-{Lys(DNP)-dR})	65.4	36.4	436		
HQSRSGPWGAL (Mca-HQSRSGPWGAL-{Lys(DNP)-dR})	61.1	0.00	5.9		
HQSRSAIALY (also: MCA, Gly-Lys(DNP)-D-Arg labels, places not given here) [X1 is Y]	434	92.7	328	1960	
HQSRSGPWGL (Mca-HQSRSGPWGL-{Lys(DNP)-dR}) [X1 absent]	94.8	27.3	705		
HQSRPWGL (also: MCA, Lys(DNP), D-Arg labels, places not given here)		548		32.0	
HQSRSAIAL (Mca-HQSRSAIAL-{Lys(DNP)-dR})	76.9	95.5	41.9		
AQSRSGPWGLL (Mca-AQSRSGPWGLL-{Lys(DNP)-dR})	726	437			
HQSRSGPWALL (Mca-HQSRSGPWALL-{Lys(DNP)-dR})	488	475			
HQSASGPWGLL (also: MCA, Lys(DNP), D-Arg labels, places not given here)	696	335		8.00	
AIALHQSRS (also: MCA, Lys(DNP), D-Arg labels, places not given here)	4220	1280	2550	11500	
HQSRSGPWGLA (Mca-HQSRSGPWGLA-{Lys(DNP)-dR})	410	345			
HQSRSAPWGLL (Mca-HQSRSAPWGLL-{Lys(DNP)-dR})		660			
COc1ccc2c(CC(=O)N[C@@H](CO)C(=O)N3CCC[C@H]3C(=O)N[C@@H](C)C(=O)NCC(=O)N[C@@H](CC(C)C)C(=O)N[C@@H](CO)C(=O)NCC(=O)N[C@@H](CCCNC(=N)N)C(=O)N[C@@H](CO)C(=O)NCC(=O)N[C@@H](CCCCNc3ccc([N+](=O)[O-])cc3[N+](=O)[O-])C(=O)N[C@H](CCCNC(=N)N)C(=O)O)cc(=O)oc2c1 [reference compound] (Mca-SPAGLSGRSGK(Dnp)[dR]-OH)					2191
HQSRSAIALYA (also: MCA, Lys(DNP), D-Arg labels, places not given here) [X1 is Y and X2 is A]	468	300	255	1750	
HQARSGPWGLL (Mca-HQARSGPWGLL-{Lys(DNP)-dR})	623	344			
PWGLHQSRS (also: MCA, Lys(DNP)-D-Arg labels, places not given here)	2550	5880	5150	1280	302
HQSRSPWG (Mca-HQSRSPWG-{Lys(DNP)-dR})	61.6	0.00	86.5		
HQSRAGPWGLL (Mca-HQSRAGPWGLL-{Lys(DNP)-dR})	594	379			

— patent US12551571B2, “Protease-cleavable substrates and methods of use thereof” (CytomX Therapeutics, Inc., priority 2022, dated 2026)
